Test results taken from patent publication US20070184493.

Tests used:
[1] = test system: substrate designed for detection of Caspase 3 (-DEVD′GIN- cleavage)
[2] = test system: substrate designed for detection of Granzyme B (-VGPD′FGR- cleavage)

Substance	Fluorogenic activity of indicated substrates measured in solution after addition of recombinant enzyme [1]	Fluorogenic activity of indicated substrates measured in solution after addition of recombinant enzyme [2]
recombinant Caspase 3	selective cleavage of substrates designed for detection of ... Caspase 3 (-DEVD′GIN- cleavage) protease activities	
recombinant Granzyme B		selective cleavage of substrates designed for detection of Granzyme B (-VGPD′FGR- cleavage)
